Measurements from publication PMC6572841, “Structural basis for the inhibition of translation through eIF2α phosphorylation” (Nature Communications, 2019).

T1: eIF2Bδ (Saccharomyces cerevisiae, UniProt P12754 1-651)
T1 construct: eIF2Bδ, S. cerevisiae; Subunit of m2 as it stood in the eIF2B-eIF2(αP) complex; also called eIF2B δ subunit; source: over-expressed in S. cerevisiae strain GP4109, purified as part of Flag-tagged eIF2B
T1 sequence: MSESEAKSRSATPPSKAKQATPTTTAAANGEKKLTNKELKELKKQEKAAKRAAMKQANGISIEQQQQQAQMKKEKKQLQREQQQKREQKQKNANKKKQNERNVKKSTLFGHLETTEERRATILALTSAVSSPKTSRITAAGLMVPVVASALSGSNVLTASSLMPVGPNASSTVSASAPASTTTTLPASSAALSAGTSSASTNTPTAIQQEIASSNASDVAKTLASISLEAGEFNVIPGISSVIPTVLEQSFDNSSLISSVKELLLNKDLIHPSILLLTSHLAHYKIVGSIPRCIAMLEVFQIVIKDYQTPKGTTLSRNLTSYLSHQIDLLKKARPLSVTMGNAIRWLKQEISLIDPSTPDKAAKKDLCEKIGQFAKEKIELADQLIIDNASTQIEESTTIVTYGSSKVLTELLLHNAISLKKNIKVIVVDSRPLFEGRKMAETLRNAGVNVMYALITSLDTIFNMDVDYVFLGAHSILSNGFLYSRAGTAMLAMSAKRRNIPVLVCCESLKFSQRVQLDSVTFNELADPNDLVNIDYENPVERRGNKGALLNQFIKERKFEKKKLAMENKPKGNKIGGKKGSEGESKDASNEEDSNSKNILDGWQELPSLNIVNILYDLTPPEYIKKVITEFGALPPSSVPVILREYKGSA

T2: eIF2Bβ (Saccharomyces cerevisiae, UniProt P32502 1-381)
T2 construct: eIF2Bβ, S. cerevisiae; Subunit of m2 as it stood in the eIF2B-eIF2(αP) complex; also called eIF2B β subunit; source: over-expressed in S. cerevisiae strain GP4109, purified as part of Flag-tagged eIF2B
T2 sequence: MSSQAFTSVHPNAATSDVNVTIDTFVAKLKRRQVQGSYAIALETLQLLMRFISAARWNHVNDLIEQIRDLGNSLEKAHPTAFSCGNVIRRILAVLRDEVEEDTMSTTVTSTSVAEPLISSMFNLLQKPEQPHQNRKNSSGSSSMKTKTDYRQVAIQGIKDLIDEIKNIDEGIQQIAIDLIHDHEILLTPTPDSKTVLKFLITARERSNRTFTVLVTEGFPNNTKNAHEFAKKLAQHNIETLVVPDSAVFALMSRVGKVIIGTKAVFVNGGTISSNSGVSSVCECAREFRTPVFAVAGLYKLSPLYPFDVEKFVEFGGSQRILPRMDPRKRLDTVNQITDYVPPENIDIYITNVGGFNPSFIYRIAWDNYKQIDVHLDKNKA

T3: eIF2Bε (Saccharomyces cerevisiae, UniProt P32501 1-712)
T3 construct: eIF2Bε, S. cerevisiae; Subunit of m2 as it stood in the eIF2B-eIF2(αP) complex; the ε-cat HEAT domain was not included in any model; also called eIF2B ε subunit; source: over-expressed in S. cerevisiae strain GP4109, purified as part of Flag-tagged eIF2B
T3 sequence: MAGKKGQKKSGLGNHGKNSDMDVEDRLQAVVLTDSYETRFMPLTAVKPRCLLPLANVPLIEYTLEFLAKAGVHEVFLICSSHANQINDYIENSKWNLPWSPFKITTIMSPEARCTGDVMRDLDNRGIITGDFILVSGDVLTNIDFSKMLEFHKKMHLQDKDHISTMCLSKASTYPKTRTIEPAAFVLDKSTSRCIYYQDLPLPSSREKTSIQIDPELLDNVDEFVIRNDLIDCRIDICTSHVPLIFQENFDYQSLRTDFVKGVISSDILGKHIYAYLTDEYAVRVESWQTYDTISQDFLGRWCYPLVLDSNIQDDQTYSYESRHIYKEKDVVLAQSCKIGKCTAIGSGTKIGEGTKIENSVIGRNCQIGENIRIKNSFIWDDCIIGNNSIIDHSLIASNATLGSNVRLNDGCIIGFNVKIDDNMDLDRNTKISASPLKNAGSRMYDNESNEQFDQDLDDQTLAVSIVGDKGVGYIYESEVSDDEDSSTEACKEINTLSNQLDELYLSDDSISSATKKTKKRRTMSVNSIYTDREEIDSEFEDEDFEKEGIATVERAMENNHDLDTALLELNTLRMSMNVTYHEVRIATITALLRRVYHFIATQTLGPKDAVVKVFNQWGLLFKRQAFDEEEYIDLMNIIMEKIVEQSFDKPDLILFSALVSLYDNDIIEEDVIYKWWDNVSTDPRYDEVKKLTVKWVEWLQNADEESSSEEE

B1: eIF2Bγ (natural protein, Saccharomyces cerevisiae)
chain: MSIQAFVFCGKGSNLAPFTQPDFPFQTQNKDSTAATSGDKLNELVNSALDSTVINEFMQHSTRLPKALLPIGNRPMIEYVLDWCDQADFKEISVVAPVDEIELIESGLTSFLSLRKQQFELIYKALSNSNHSHHLQDPKKINFIPSKANSTGESLQKELLPRINGDFVILPCDFVTDIPPQVLVDQFRNRDDNNLAMTIYYKNSLDSSIDKKQQQKQKQQQFFTVYSENEDSERQPILLDVYSQRDVTKTKYLQIRSHLLWNYPNLTVSTKLLNSFIYFCSFELCQLLKLGPQSMSRQASFKDPFTGNQQQQNPPTTDDDEDRNHDDDDDYKPSATSIQPTYFKKKNDLILDPINCNKSLSKVFRDLSRRSWQHSKPREPIGIFILPNETLFIRANNLNAYMDANRFVLKIKSQTMFTKNIQIQSAAIGADAIVDPKCQISAHSNVKMSVLGTQANIGSRCRVAGSLLFPGVHLGDEVILENCIIGPMAKIGSKCKLSNCYIEGHYVVEPKNNFKGETLANVYLDEDEEDELIYDDSVIAGESEIAEETDSDDRSDEDSDDSEYTDEYEYEDDGLFER
notes: eIF2Bγ, S. cerevisiae; Subunit of m2 as it stood in the eIF2B-eIF2(αP) complex; also called eIF2B γ subunit; source: over-expressed in S. cerevisiae strain GP4109, purified as part of Flag-tagged eIF2B
B2: eIF2Bα (natural protein, Saccharomyces cerevisiae)
chain: MSEFNITETYLRFLEEDTEMTMPIAAIEALVTLLRIKTPETAAEMINTIKSSTEELIKSIPNSVSLRAGCDIFMRFVLRNLHLYGDWENCKQHLIENGQLFVSRAKKSRNKIAEIGVDFIADDDIILVHGYSRAVFSLLNHAANKFIRFRCVVTESRPSKQGNQLYTLLEQKGIPVTLIVDSAVGAVIDKVDKVFVGAEGVAESGGIINLVGTYSVGVLAHNARKPFYVVTESHKFVRMFPLSSDDLPMAGPPLDFTRRTDDLEDALRGPTIDYTAQEYITALITDLGVLTPSAVSEELIKMWYD
notes: eIF2Bα, S. cerevisiae; Subunit of m2 as it stood in the eIF2B-eIF2(αP) complex; also called eIF2B α subunit; source: over-expressed in S. cerevisiae strain GP4109, purified as part of Flag-tagged eIF2B

What was measured:
Assay in all cases: cryo-EM structure; eIF2(αP) with 2 mM GDP added to Flag-tagged eIF2B immobilised on Anti-Flag M2 gel, eluted with 3XFlag-peptide; 20 mM Hepes (pH 7.5), 100 mM KCl, 5 mM MgCl2, 5 mM β-ME; diluted to ~200 nM with 0.1% glutaraldehyde; six maps, 4.2 to 10.4 Å
Conditions in all cases: both partners purified
[1] = target: T1, eIF2Bδ
[2] = target: B2
[3] = target: T2, eIF2Bβ
[4] = target: B1
[5] = target: T3, eIF2Bε

Binder | binding result [3] | binding result [4] | binding result [5] | further results
eIF2α phosphorylated at Ser51 (natural protein, Saccharomyces cerevisiae, UniProt P20459 1-304, looked up, phosphoserine at 51 (52 sequence numbering); measured by mass spectrometry to be 89.4%, eIF2α, S. cerevisiae; Subunit of m1 as it stood in the eIF2B-eIF2(αP) complex; also called eIF2(αP) α subunit; source: purified from S. cerevisiae strain GP3511 as part of eIF2; phosphorylated in vitro by human PKR (Invitrogen)) MSTSHCRFYENKYPEIDDIVMVNVQQIAEMGAYVKLLEYDNIEGMILLSELSRRRIRSIQKLIRVGKNDVAVVLRVDKEKGYIDLSKRRVSSEDIIKCEEKYQKSKTVHSILRYCAEKFQIPLEELYKTIAWPLSRKFGHAYEAFKLSIIDETVWEGIEPPSKDVLDELKNYISKRLTPQAVKIRADVEVSCFSYEGIDAIKDALKSAEDMSTEQMQVKVKLVAAPLYVLTTQALDKQKGIEQLESAIEKITEVITKYGGVCNITMPPKAVTATEDAELQALLESKELDNRSDSEDDEDESDDE | binds |  |  | binding result [1]: binds; binding result [2]: binds
eIF2β (natural protein, Saccharomyces cerevisiae, UniProt P09064 1-285, looked up, eIF2β, S. cerevisiae; Subunit of m1 as it stood in the eIF2B-eIF2(αP) complex; also called eIF2 β subunit; source: purified from S. cerevisiae strain GP3511 as part of eIF2) MSSDLAAELGFDPALKKKKKTKKVIPDDFDAAVNGKENGSGDDLFAGLKKKKKKSKSVSADAEAEKEPTDDIAEALGELSLKKKKKKTKDSSVDAFEKELAKAGLDNVDAESKEGTPSANSSIQQEVGLPYSELLSRFFNILRTNNPELAGDRSGPKFRIPPPVCLRDGKKTIFSNIQDIAEKLHRSPEHLIQYLFAELGTSGSVDGQKRLVIKGKFQSKQMENVLRRYILEYVTCKTCKSINTELKREQSNRLFFMVCKSCGSTRSVSSIKTGFQATVGKRRRM |  | binds | binds | 
B1 |  |  | binds | 
B2 | binds |  |  | 
eIF2γ (natural protein, Saccharomyces cerevisiae, UniProt P32481 1-527, looked up, eIF2γ, S. cerevisiae; Subunit of m1 as it stood in the eIF2B-eIF2(αP) complex; also called eIF2 γ subunit; source: purified from S. cerevisiae strain GP3511 as part of eIF2) MSDLQDQEPSIIINGNLEPVGEPDIVEETEVVAQETQETQDADKPKKKVAFTGLEEDGETEEEKRKREFEEGGGLPEQPLNPDFSKLNPLSAEIINRQATINIGTIGHVAHGKSTVVRAISGVQTVRFKDELERNITIKLGYANAKIYKCQEPTCPEPDCYRSFKSDKEISPKCQRPGCPGRYKLVRHVSFVDCPGHDILMSTMLSGAAVMDAALLLIAGNESCPQPQTSEHLAAIEIMKLKHVIILQNKVDLMREESALEHQKSILKFIRGTIADGAPIVPISAQLKYNIDAVNEFIVKTIPVPPRDFMISPRLIVIRSFDVNKPGAEIEDLKGGVAGGSILNGVFKLGDEIEIRPGIVTKDDKGKIQCKPIFSNIVSLFAEQNDLKFAVPGGLIGVGTKVDPTLCRADRLVGQVVGAKGHLPNIYTDIEINYFLLRRLLGVKTDGQKQAKVRKLEPNEVLMVNIGSTATGARVVAVKADMARLQLTSPACTEINEKIALSRRIEKHWRLIGWATIKKGTTLEPIA |  | binds |  | 
